For nine molecules, Kd, koff and kon results are on record in patent publication US20140271457A1 (AbbVie / Abbott, published 2014).

B1: DVD3114 (bispecific antibody, IgG1)
VH: EVQLVQSGAEVKKPGASVKVSCKASGYTFNNYGIIWVRQAPGQGLEWMGWINTYTGKPTYAQKFQGRVTMTTDTSTSTAYMELSSLRSEDTAVYYCARKLFNTVAVTDNAMDYWGQGTTVTVSSASTKGPEVQLVQSGAEVKKPGASVKVSCKASGYTFTTYGVSWVRQAPGQGLEWMGEIYPGNYNTYYNEKFRGRVTMTTDTSTSTAYMELRSLRSDDTAVYYCARWRTSYFSDYGYFDYWGQGTTVTVSS
VL: DIQMTQSPSSLSASVGDRVTITCRASQDIENYLNWYQQKPGKAPKLLIYYTSRLQSGVPSRFSGSGSGTDFTLTISSLQPEDFATYFCQQGNTQPPTFGQGTKLEIKRTVAAPDVVMTQSPLSLPVTLGQPASISCRSSQSLVHSHGNTYLHWYQQRPGQSPRLLIYTVSNRFSGVPDRFSGSGSGTDFTLKISRVEAEDVGVYYCSQSTHVPYTFGGGTKVEIKR
notes: DVD-Ig; wt hIgG1 + kappa constants
B2: DVD3086 (bispecific antibody, IgG1)
VH: EVQLVESGGGLVQPGGSLRLSCAASGFTFSNYGVTWVRQAPGKGLEWVSMIWADGSTHYASSVKGRFTISRDNSKNTLYLQMNSLRAEDTAVYYCAREWQHGPVAYWGQGTLVTVSSASTKGPEVQLVQSGAEVKKPGASVKVSCKASGYTFTTYGVSWVRQAPGQGLEWMGEIYPGNYNTYYNEKFRGRVTMTTDTSTSTAYMELRSLRSDDTAVYYCARWRTSYFSDYGYFDYWGQGTTVTVSS
VL: DIQMTQSPSSLSASVGDRVTITCRASQLVSSAVAWYQQKPGKAPKLLIYWASARHTGVPSRFSGSGSGTDFTLTISSLQPEDFATYYCQQHYKTPFTFGQGTKLEIKRTVAAPSVFIFPPDVVMTQSPLSLPVTLGQPASISCRSSQSLVHSHGNTYLHWYQQRPGQSPRLLIYTVSNRFSGVPDRFSGSGSGTDFTLKISRVEAEDVGVYYCSQSTHVPYTFGGGTKVEIKR
notes: as for B1
B3: DVD3096 (bispecific antibody, IgG1)
VH: EVQLVESGGGLVQPGGSLRLSCAASGFTFSNYGVEWVRQAPGKGLEWVSGIWADGSTHYADTVKSRFTISRDNSKNTLYLQMNSLRAEDTAVYYCAREWQHGPVAYWGQGTLVTVSSASTKGPEVQLVQSGAEVKKPGASVKVSCKASGYTFTTYGVSWVRQAPGQGLEWMGEIYPGNYNTYYNEKFRGRVTMTTDTSTSTAYMELRSLRSDDTAVYYCARWRTSYFSDYGYFDYWGQGTTVTVSS
VL: DIQMTQSPSSLSASVGDRVTITCKASQLVSSAVAWYQQKPGKAPKLLIYWASTLHTGVPSRFSGSGSGTDFTLTISSLQPEDFATYYCQQHYRTPFTFGQGTKLEIKRTVAAPSVFIFPPDVVMTQSPLSLPVTLGQPASISCRSSQSLVHSHGNTYLHWYQQRPGQSPRLLIYTVSNRFSGVPDRFSGSGSGTDFTLKISRVEAEDVGVYYCSQSTHVPYTFGGGTKVEIKR
notes: as for B1
B4: DVD3092 (bispecific antibody, IgG1)
VH: EVQLVQSGAEVKKPGASVKVSCKASGYTFTTYGVSWVRQAPGQGLEWMGEIYPGNYNTYYNEKFRGRVTMTTDTSTSTAYMELRSLRSDDTAVYYCARWRTSYFSDYGYFDYWGQGTTVTVSSASTKGPSVFPLAPEVQLVESGGGLVQPGGSLRLSCAASGFTFSNYGVTWVRQAPGKGLEWVSMIWADGSTHYASSVKGRFTISRDNSKNTLYLQMNSLRAEDTAVYYCAREWQHGPVAYWGQGTLVTVSS
VL: DVVMTQSPLSLPVTLGQPASISCRSSQSLVHSHGNTYLHWYQQRPGQSPRLLIYTVSNRFSGVPDRFSGSGSGTDFTLKISRVEAEDVGVYYCSQSTHVPYTFGGGTKVEIKRTVAAPDIQMTQSPSSLSASVGDRVTITCRASQLVSSAVAWYQQKPGKAPKLLIYWASARHTGVPSRFSGSGSGTDFTLTISSLQPEDFATYYCQQHYKTPFTFGQGTKLEIKR
notes: as for B1
B5: DVD3143 (bispecific antibody, IgG1)
VH: EVQLVESGGGLVQPGGSLRLSCAASGFTFSNYGVTWVRQAPGKGLEWVSMIWADGSTHYASSVKGRFTISRDNSKNTLYLQMNSLRAEDTAVYYCAREWQHGPVAYWGQGTLVTVSSGGGGSGGGGSEVQLVQSGAEVKKPGASVKVSCKASGYTFTSYWMHWVRQAPGQGLEWIGNINPKGGSNIYNEKFQGRVTMTRDTSISTAYMELSRLRSDDTAVYYCARLDYFGDSFDLWGQGTTVTVSS
VL: DIQMTQSPSSLSASVGDRVTITCRASQLVSSAVAWYQQKPGKAPKLLIYWASARHTGVPSRFSGSGSGTDFTLTISSLQPEDFATYYCQQHYKTPFTFGQGTKLEIKRGGSGGGGSGDIQMTQSPSSLSASVGDRVTITCRASQGIRNYLNWYQQKPGKAPKLLIYYASNLEVGVPSRFSGSGSGTDYTLTISSLQPEDFATYYCQQDNRFPYTFGGGTKVEIKR
notes: as for B1
B6: DVD3153 (bispecific antibody, IgG1)
VH: EVQLVESGGGLVQPGGSLRLSCAASGFTFSNYGVEWVRQAPGKGLEWVSGIWADGSTHYADTVKSRFTISRDNSKNTLYLQMNSLRAEDTAVYYCAREWQHGPVAYWGQGTLVTVSSGGGGSGGGGSEVQLVQSGAEVKKPGASVKVSCKASGYTFTSYWMHWVRQAPGQGLEWIGNINPKGGSNIYNEKFQGRVTMTRDTSISTAYMELSRLRSDDTAVYYCARLDYFGDSFDLWGQGTTVTVSS
VL: DIQMTQSPSSLSASVGDRVTITCKASQLVSSAVAWYQQKPGKAPKLLIYWASTLHTGVPSRFSGSGSGTDFTLTISSLQPEDFATYYCQQHYRTPFTFGQGTKLEIKRGGSGGGGSGDIQMTQSPSSLSASVGDRVTITCRASQGIRNYLNWYQQKPGKAPKLLIYYASNLEVGVPSRFSGSGSGTDYTLTISSLQPEDFATYYCQQDNRFPYTFGGGTKVEIKR
notes: as for B1
B7: DVD3113 (bispecific antibody, IgG1)
VH: EVQLVQSGAEVKKPGASVKVSCKASGYTFNNYGIIWVRQAPGQGLEWMGWINTYTGKPTYAQKFQGRVTMTTDTSTSTAYMELSSLRSEDTAVYYCARKLFNTVAVTDNAMDYWGQGTTVTVSSGGGGSGGGGSEVQLVQSGAEVKKPGASVKVSCKASGYTFTTYGVSWVRQAPGQGLEWMGEIYPGNYNTYYNEKFRGRVTMTTDTSTSTAYMELRSLRSDDTAVYYCARWRTSYFSDYGYFDYWGQGTTVTVSS
VL: DIQMTQSPSSLSASVGDRVTITCRASQDIENYLNWYQQKPGKAPKLLIYYTSRLQSGVPSRFSGSGSGTDFTLTISSLQPEDFATYFCQQGNTQPPTFGQGTKLEIKRGGSGGGGSGDVVMTQSPLSLPVTLGQPASISCRSSQSLVHSHGNTYLHWYQQRPGQSPRLLIYTVSNRFSGVPDRFSGSGSGTDFTLKISRVEAEDVGVYYCSQSTHVPYTFGGGTKVEIKR
notes: as for B1
B8: DVD3087 (bispecific antibody, IgG1)
VH: EVQLVESGGGLVQPGGSLRLSCAASGFTFSNYGVTWVRQAPGKGLEWVSMIWADGSTHYASSVKGRFTISRDNSKNTLYLQMNSLRAEDTAVYYCAREWQHGPVAYWGQGTLVTVSSASTKGPSVFPLAPEVQLVQSGAEVKKPGASVKVSCKASGYTFTTYGVSWVRQAPGQGLEWMGEIYPGNYNTYYNEKFRGRVTMTTDTSTSTAYMELRSLRSDDTAVYYCARWRTSYFSDYGYFDYWGQGTTVTVSS
VL: DIQMTQSPSSLSASVGDRVTITCRASQLVSSAVAWYQQKPGKAPKLLIYWASARHTGVPSRFSGSGSGTDFTLTISSLQPEDFATYYCQQHYKTPFTFGQGTKLEIKRTVAAPDVVMTQSPLSLPVTLGQPASISCRSSQSLVHSHGNTYLHWYQQRPGQSPRLLIYTVSNRFSGVPDRFSGSGSGTDFTLKISRVEAEDVGVYYCSQSTHVPYTFGGGTKVEIKR
notes: as for B1
B9: DVD3097 (bispecific antibody, IgG1)
VH: EVQLVESGGGLVQPGGSLRLSCAASGFTFSNYGVEWVRQAPGKGLEWVSGIWADGSTHYADTVKSRFTISRDNSKNTLYLQMNSLRAEDTAVYYCAREWQHGPVAYWGQGTLVTVSSASTKGPSVFPLAPEVQLVQSGAEVKKPGASVKVSCKASGYTFTTYGVSWVRQAPGQGLEWMGEIYPGNYNTYYNEKFRGRVTMTTDTSTSTAYMELRSLRSDDTAVYYCARWRTSYFSDYGYFDYWGQGTTVTVSS
VL: DIQMTQSPSSLSASVGDRVTITCKASQLVSSAVAWYQQKPGKAPKLLIYWASTLHTGVPSRFSGSGSGTDFTLTISSLQPEDFATYYCQQHYRTPFTFGQGTKLEIKRTVAAPDVVMTQSPLSLPVTLGQPASISCRSSQSLVHSHGNTYLHWYQQRPGQSPRLLIYTVSNRFSGVPDRFSGSGSGTDFTLKISRVEAEDVGVYYCSQSTHVPYTFGGGTKVEIKR
notes: as for B1

The target of the test is Recombinant Human IL-13 (human, UniProt P35225 35-146, limits assumed). As to the kind of experiment: Biacore SPR. The method, then: The BIACORE assay (GE, Healthcare Piscataway, N.J.) determined the affinity of antibodies or DVD-Ig with kinetic measurements of on-rate and off-rate constants. Binding of antibodies or DVD-Ig proteins to a target antigen (for example, a purified recombinant target antigen) was determined by surface plasmon resonance-based measurements with a Biacore T200 using running HBS-EP+buffer from GE Healthcare at 25° C. All chemicals were obtained from GE Healthcare or otherwise from a different source as described in the text. For example, approximately 5000 RU of goat anti-mouse IgG, (Fcγ), fragment specific polyclonal antibody (Pierce Biotechnology Inc, Rockford, Ill.) diluted in 10 mM sodium acetate (pH 4.5) was directly immobilized across a CM5 research grade biosensor chip using a standard amine coupling kit according to manufacturer's instructions. Unreacted moieties on the biosensor surface were blocked with ethanolamine. Modified carboxymethyl dextran surface in flowcell 1 was used as a reference surface. Rate constants were derived by making kinetic binding measurements at different antigen concentrations ranging from 0.8-100 nM. Binding was recorded as a function of time and kinetic rate constants were calculated. In this assay, association rate was evaluated for 5 min and dissociation was monitored for 10 min. For kinetic screening analysis, rate equations derived from the 1:1 binding model were fitted simultaneously to association and dissociation phases of all injections (using global fit analysis with Rmax fit locally to account for capture variations) with the use of Biaevaluation software. Purified antibodies or DVD-Ig proteins were diluted in HEPES-buffered saline for capture across goat anti-mouse IgG specific reaction surfaces. Antibodies or DVD-Ig proteins to be captured as a ligand were injected over reaction matrices at a flow rate of 5 μl/minute. The association and dissociation rate constants, kₒₙ (M⁻¹ s⁻¹) and koff (s⁻¹) were determined under a continuous flow rate of 50 μl/minute. Rate constants were derived by making kinetic binding measurements at different antigen concentrations ranging from 0.8-100 nM. Binding was recorded as a function of time and kinetic rate constants were calculated. In this assay, association rate was evaluated for 5 min and dissociation was monitored for 10 min.
Sequence of Recombinant Human IL-13 (P35225 35-146 limits assumed): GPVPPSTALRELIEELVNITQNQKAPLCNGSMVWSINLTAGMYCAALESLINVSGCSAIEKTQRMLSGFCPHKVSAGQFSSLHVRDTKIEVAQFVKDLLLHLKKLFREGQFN
With B1, the Kd was 0.0069 nM, the koff worked out at 1.2e-06 s⁻¹ and the kon amounted to 170000 M⁻¹ s⁻¹.

As for B2, the Kd is less than 0.015 nM, the off-rate (koff) was less than 1e-06 s⁻¹ and the kon was found to be 65000 M⁻¹ s⁻¹.

In the case of B3, the Kd was determined as 0.00076 nM, the koff is 5.3e-08 s⁻¹ and the kon was found to be 70000 M⁻¹ s⁻¹.

In the case of B4, the Kd is 0.044 nM, the koff was determined as 2.5e-05 s⁻¹ and the kon is 580000 M⁻¹ s⁻¹.

With B5, the Kd was 0.37 nM, the koff was found to be 6.2e-05 s⁻¹ and the kon amounted to 170000 M⁻¹ s⁻¹.

As for B6, the Kd was determined as 0.45 nM, the koff was found to be 8.2e-05 s⁻¹ and the kon was determined as 180000 M⁻¹ s⁻¹.

Turning to B7, the Kd was 0.015 nM, the koff was found to be 1.2e-06 s⁻¹ and the kon was 75000 M⁻¹ s⁻¹.

Take B8: the Kd is less than 0.02 nM, the koff was less than 1e-06 s⁻¹ and the kon worked out at 51000 M⁻¹ s⁻¹.

Regarding B9, the Kd was less than 0.021 nM, the koff was less than 1e-06 s⁻¹ and the kon is 48000 M⁻¹ s⁻¹.

One may read the Kd as the equilibrium constant for the complex coming apart. The koff is a measure of how fast the partners let go of each other. For orientation: kon means a measure of how fast the partners come together.
